One assay addresses T1, OsS49462 aa 1-100 (Oryza sativa, UniProt Q01J96 179-278).
T1 construct: bait, Gal4 DBD fusion; also called PN20325; O. sativa Cyclin OsS49462, Fragment
T1 sequence: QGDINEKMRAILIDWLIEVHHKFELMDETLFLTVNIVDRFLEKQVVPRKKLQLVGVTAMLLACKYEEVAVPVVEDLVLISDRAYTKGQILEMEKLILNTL
Description: Y2H; output trait library. The method, boiled down: (§1)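 A rice prey library, either the input trait or the output trait library, was screened with a bait clone encoding a defined amino-acid fragment of a rice protein. Screening used an automated, high-throughput yeast two-hybrid assay provided by Myriad Genetics Inc. (Salt Lake City, Utah). Retrieved prey clones had their encoding sequences compared by BLAST against databases so the interacting proteins could be identified.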

A further assay deals with T2, OsCAA90866 aa 100-250 (Oryza sativa).
T2 construct: bait, Gal4 DBD fusion; also called PN20311; O. sativa Chilling-Inducible Protein CAA90866
T2 chain: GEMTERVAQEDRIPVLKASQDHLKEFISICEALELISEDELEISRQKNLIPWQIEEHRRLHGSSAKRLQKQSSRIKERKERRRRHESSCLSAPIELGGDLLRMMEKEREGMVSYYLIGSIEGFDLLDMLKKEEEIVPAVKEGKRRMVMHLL
Description: Y2H; output trait library.

Another assay addresses T3, OsE2F1 aa 100-250 (Oryza sativa).
T3 construct: bait, Gal4 DBD fusion; also called PN19758; O. sativa E2F Homolog
The assay is described as follows: Y2H; output trait library. Summed up:
as §1

A further assay has as its target T4, OsPP2A-2 aa 1-308 (Oryza sativa, UniProt A2XN40 1-307).
T4 construct: bait, Gal4 DBD fusion; also called PN20254; O. sativa Serine/Threonine Protein Phosphatase PP2A-2, Catalytic Subunit
Description: Y2H; input trait library. Summed up:
as §1

For a further assay, the target named is T5, OsCHIB1 aa 10-200 (Oryza sativa).
T5 construct: bait, Gal4 DBD fusion; also called PN19651; O. sativa Chitinase, Class III
T5 chain: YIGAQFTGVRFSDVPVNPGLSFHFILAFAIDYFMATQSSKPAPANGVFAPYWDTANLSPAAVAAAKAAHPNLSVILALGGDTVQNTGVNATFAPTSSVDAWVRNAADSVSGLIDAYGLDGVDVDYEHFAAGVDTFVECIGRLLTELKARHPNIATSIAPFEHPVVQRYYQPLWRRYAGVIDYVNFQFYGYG
The assay is described as follows: Y2H; input trait library. Summed up: as §1

The text below walks through data of patent publication US20060253917A1 (published 2006).

Ends that are not written are not given here.

T3 sequence (chain, as listed by the source): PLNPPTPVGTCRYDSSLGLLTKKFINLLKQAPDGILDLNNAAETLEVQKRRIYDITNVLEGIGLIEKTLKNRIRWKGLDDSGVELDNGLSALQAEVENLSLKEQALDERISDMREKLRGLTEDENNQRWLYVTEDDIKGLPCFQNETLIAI
T4 sequence (A2XN40 whole entry, the tested form may be a part): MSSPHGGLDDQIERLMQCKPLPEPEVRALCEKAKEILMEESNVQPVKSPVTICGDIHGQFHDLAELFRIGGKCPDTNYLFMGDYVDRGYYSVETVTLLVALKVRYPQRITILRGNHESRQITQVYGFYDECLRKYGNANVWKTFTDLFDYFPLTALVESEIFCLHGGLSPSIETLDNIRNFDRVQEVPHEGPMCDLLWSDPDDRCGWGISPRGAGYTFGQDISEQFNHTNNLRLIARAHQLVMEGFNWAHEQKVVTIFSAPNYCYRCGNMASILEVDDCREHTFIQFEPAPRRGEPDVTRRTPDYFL

B1: OsPN29957 aa 28-214 (other)
chain: EVSFSIRVAKGRGIFEKLGRLAKPRVLALTVKQSTKGEAAKAFLRVLKYSSGAVLEPAKLYKLKHLTKVEVISNDPSGCTFVLGFDNLRSQSVAPPQWTMRNIDDRNRLLFSILTMCKEILSYLPKVVGIDFVELALWAKENTVTLDNQSSTQDGQEKSVTTQTERKVTVTVENDLGSQAKDEEEDM
notes: prey, AD fusion
In the case of B1, the binding result in the assay with OsS49462 aa 1-100 was “binds”.

B2: OsPN29883 aa 58-175 (other)
chain: YGQLKAAQPFFLLAGPNVIESEEHVLKMAKHIKGITTKLGLPLVFKSSFDKANRTSSKSFRGPGLEEGLKILEKVKATYDIPVVTDVHESHQCEAAGRVADIIQIPAFFCRQTDLLVA
notes: prey, AD fusion; also called Novel Protein PN29883, Fragment
Consider B2, for which the binding result with OsCAA90866 aa 100-250 was “binds”.

B3: OsPN29957 aa 51-288 (other)
chain: PRVLALTVKQSTKGEAAKAFLRVLKYSSGAVLEPAKLYKLKHLTKVEVISNDPSGCTFVLGFDNLRSQSVAPPQWTMRNIDDRNRLLFSILTMCKEILSYLPKVVGIDFVELALWAKENTVTLDNQSSTQDGQEKSVTTQTERKVTVTVENDLGSQAKDEEEDMEALLDTYVMGIGEADAFSERLKQELVALEAANVYQLLQSEPLIDEVLQGLDAASATVDDMDEWLRIFNMKLRHM
notes: prey, AD fusion; also called Novel Protein PN29957, Fragment, unknown
In the case of B3, the binding result with OsS49462 aa 1-100 is reported as “binds”.

B4: OsPN26539 aa 194-346 (other)
chain: TEIIGLKGRIDKKNAYLQELEDQFVGLQNLAQRNEQLYGSGNAPSGGVALPFILVQTRPHATVEVEISEDMQLVHFDFNSTPFELHDDSFVLKALGFSGKEPDDTQAWVGNGGECSTTPIYHQSPQVARPNGVRLPTSPPIPGILKGRVKHEH
notes: prey, AD fusion
On to B4, for which, in the assay with OsE2F1 aa 100-250, the binding result was “binds”.

B5: OsPN26645 aa 24-164 (other)
chain: PLPEACPVPTAAEEILGPGGTCTTLDRRGDPVGVIEGDEVTLAKAITLLHMNKDDYIAVLFYASWCPFSQECKPNFEILASLFPSIRHFAFEESSIRPSIISRYGIHGFPTLFLLNSTMRVRYHGPRTVKSLAAFYRDVSG
notes: prey, AD fusion; also called Novel Protein PN26645, Putative Protein Disulfide Isomerase-Related Protein Precursor
In the case of B5, the binding result with OsPP2A-2 aa 1-308 was “binds”.

B6: OsPN26539 aa 82-253 (other)
chain: GPGTRATGPDKGGRGLRQFSMKVCEKVESKGRTTYNEVADELVAEFADPNNNFASPDPDNPNTPQFDEKNIRRRVYDALNVLMAMDIISKDKKEIQWKGLPRTSMSDVEELKTEIIGLKGRIDKKNAYLQELEDQFVGLQNLAQRNEQLYGSGNAPSGGVALPFILVQTRPH
notes: prey, AD fusion
Take B6: the binding result in the assay with OsE2F1 aa 100-250 was “binds”.

B7: OsPN22823 aa 25-106 (other)
chain: SSSGKKVPLFSLFRYADRLDVLLMVVGTVGALGNGISQPLMTVLFGNVINSFGANTSGSVLRSVTKVKVSCWTMAGERQSAR
notes: prey, AD fusion; also called Novel Protein PN22823, Similar to ABC Transporter Proteins
For B7, the binding result in the assay with OsCHIB1 aa 10-200 was “binds”.

B8: OsPN26539 aa 66-346 (other)
chain: DDAPSSQPATSKKKKRGPGTRATGPDKGGRGLRQFSMKVCEKVESKGRTTYNEVADELVAEFADPNNNFASPDPDNPNTPQFDEKNIRRRVYDALNVLMAMDIISKDKKEIQWKGLPRTSMSDVEELKTEIIGLKGRIDKKNAYLQELEDQFVGLQNLAQRNEQLYGSGNAPSGGVALPFILVQTRPHATVEVEISEDMQLVHFDFNSTPFELHDDSFVLKALGFSGKEPDDTQAWVGNGGECSTTPIYHQSPQVARPNGVRLPTSPPIPGILKGRVKHEH
notes: prey, AD fusion; also called Novel Protein PN26539, Probable DP
Consider B8, for which the binding result with OsE2F1 aa 100-250 is listed as “binds”.

B9: OsORF020300-2233.2 aa 1-206 (other)
chain: MVEVEEVSNKMQAQMRLHPAAAAEEEDADLPLPALFDKASHLHSLASSSSLDQEGIRKGVDLLRRCDEMVSKLGLFSSNETKDDVSTANLKYLLVPYYLGEMTERVAQEDRIPVLKASQDHLKEFISICEALELISEDELELSRQKQPDTMANRRAQKAARFKRQKAAETKLLEIKERKERRRRSLRAAALSAPIEAGEEDAFEDD
notes: prey, AD fusion; also called PN21639
B9: in the assay with OsCAA90866 aa 100-250, the binding result is reported as “binds”.

B10: OsORF020300-2233.2 aa 1-190 (other)
chain: MVEVEEVSNKMQAQMRLHPAAAAEEEDADLPLPALFDKASHLHSLASSSSLDQEGIRKGVDLLRRCDEMVSKLGLFSSNETKDDVSTANLKYLLVPYYLGEMTERVAQEDRIPVLKASQDHLKEFISICEALELISEDELELSRQKQPDTMANRRAQKAARFKRQKAAETKLLEIKERKERRRRSLRAAA
notes: as for B9
B10: in the assay with OsCAA90866 aa 100-250, the binding result is “binds”.

B11: OsPN22020 aa 76-170 (other)
chain: ANATDGVKPLVGSARLPLRDVLADTGIGARASRSLRLKRPSGRPHGRLEVRVAVREPKRYYDPSPAYPAPYHQQTNRDPYAYGNTTTGGYGYAYG
notes: prey, AD fusion; also called Novel Protein PN22020, Fragment, Similar to A. thaliana Putative Protein
Consider B11, for which, in the assay with OsCHIB1 aa 10-200, the binding result is “binds”.

B12: OsCAA90866 aa 1-126 (other)
chain: MVEVEEVSNKMQVQMRLHPAAAAEEEDADLPLPALFDKASHLHSLASSSSLDQEGIRKGVDLLRRCDEMVSKVGLFSSNETKDDISTANLKYLLVPYYLGEMTERVAQEDRIPVLKASQDHLKEFI
notes: prey, AD fusion; also called PN20311
B12: the binding result with OsCAA90866 aa 100-250 is recorded as “binds”.

B13: OsPN29041 aa 5-108 (other)
chain: VQIRRALRALVDDHTDGLMDFEDTEVRSSEETDALEEARLAIEQVVIPKGESVQLLPRPPSIIASQVDLVESFKLKWESIGQEPNACLRILPQFVGVEEGGKSV
notes: prey, AD fusion; also called Novel Protein PN29041, Fragment, Similar to A. thaliana Putative ATPase
Regarding B13, the binding result with OsCHIB1 aa 10-200 is given as “binds”.

B14: OsPN23484 aa 111-194 (other)
chain: GREDREREVQEELASLSDLAASYHSRLQSHGIDPDSFSDDGEEEQHDEEDGEEVEQIDTAALQTDGSSGGDSIGGMQVKAMVDD
notes: prey, AD fusion; also called Novel Protein PN23484, heavy meromyosin
As to B14, the binding result with OsS49462 aa 1-100 is reported as “binds”.

B15: OsORF020300-2233.2 aa 118-388 (other)
chain: SQDHLKEFISICEALELISEDELELSRQKQPDTMANRRAQKAARFKRQKAAETKLLEIKERKERRRRSLRAAALSAPIEAGEEDAFEDDGEEEREAWLATISLALCKAFDLLDMLKKEEEMLLAVKERQAKDGNAFAREMLDERTKKAEAWHHNAANRAPYSKPADPITCATFAQDVIEGRASVSQAHEHKHQPLIFGPASLVGGGLTSERERMAAQVFQPSYRLPTMSIEEAGLREMKMMEKWQERTAKMIQESNSAWHKDGSRSAQEDE
notes: as for B9
On to B15, for which the binding result with OsPP2A-2 aa 1-308 is on record as “binds”.

B16: OsPN30852 aa 45-86 (other)
chain: RFEATTKSKLASLNEKLDILERKLEVLEVQVSSATTNPSVFN
modifications: not fully specified
notes: prey, AD fusion; also called Novel Protein PN30852
Turning to B16, the binding result with OsE2F1 aa 100-250 is given as “binds”.

B17: OsPN23268 aa 12-200 (other)
chain: SEEEAEATLRLLLEEENEARIAAFLVLLRAKGETYEEIVGLAKAMIGCCVRVDGLDDAVDIVGTGGDGADTVNISTGSTILAAAAGAKVAKQGSRASSSACGSADGIKRCVNEVGVGFMMSANYHPAMKIVKPVRKKLKIKTVFNILGPLLNPARVPYAVIGVYHENIVTKMAKAAQKFGMKRALVVHS
notes: prey, AD fusion; also called Novel Protein 23268, Similar to Phosphoribosylanthranilate Transferase, Chloroplast Precursor, Fragment
Regarding B17, the binding result with OsPP2A-2 aa 1-308 is recorded as “binds”.

B18: Os018989-4003 aa 177-294 (other)
chain: NYRYEKIQKLEEVHKELITRIKNKKKLLQEIEKQFDDLQNITLRNQASQRPAESVNGILLPFLLIKTSRKARVEIEISEDSKFARFDFNGAPFTMHDDVSILEAIRRNKGRAGLSIHP
notes: prey, AD fusion; also called PN21044
Regarding B18, the binding result with OsE2F1 aa 100-250 is “binds”.

B19: PN25358 aa 303-472 (other)
chain: VSASEFYSQSAIYVAAAHALKPNYSVYRSALRLVRSMLPLPYLKVGYLIAPPENSAIAPHKEWERSQFVLNHEELQQVNASDQPPSQSPGHVDSGRKLFRIVVADIVSVSACADLTLPPGAGLRIDTIHGPRFLVADNWETIDSWLDAIRLVYTIFARGRSDVLAGIITG
notes: prey, AD fusion; also called Hypothetical Protein AAK39589
With B19, in the assay with OsS49462 aa 1-100, the binding result is “binds”.

B20: OsORF020300-2233.2 aa 93-387 (other)
chain: LLVPYYLGEMTERVAQEDRIPVLKASQDHLKEFISICEALELISEDELELSRQKQPDTMANRRAQKAARFKRQKAAETKLLEIKERKERRRRSLRAAALSAPIEAGEEDAFEDDGEEEREAWLATISLALCKAFDLLDMLKKEEEMLLAVKERQAKDGNAFAREMLDERTKKAEAWHHNAANRAPYSKPADPITCATFAQDVIEGRASVSQAHEHKHQPLIFGPASLVGGGLTSERERMAAQVFQPSYRLPTMSIEEAGLREMKMMEKWQERTAKMIQESNSAWHKDGSRSAQED
notes: prey, AD fusion; also called PN21639; Hypothetical Protein ORF020300-2233.2, Putative PP2A Regulatory Subunit, Similar to OsCAA90866
Take B20: the binding result in the assay with OsPP2A-2 aa 1-308 is “binds”.

B21: OsAAK63900 aa 122-224 (other)
chain: AAVAGKTHYRSALCASVTICGPIKKKIIDHFHKKPVPPKPEPKPEPPKPKPEPEHPFLDHIHKKEKHFFDHFHKKPVPPKPEPKPEPKPQPAPEYHNPSPPAN
notes: prey, AD fusion; also called PN23266; O. sativa Putative Proline-Rich Protein AAK63900
Consider B21, for which, in the assay with OsPP2A-2 aa 1-308, the binding result is listed as “binds”.

B22: OsPN29942 aa 11-182 (other)
chain: VDTSNEIKEIVIDDMEPKVFQAGFLFMYRDNLVGDDELSASSSDCSIFDTLAGKLLAAADRYELPRLRLLCESYLCKHISVNSVATTLALADRHHAMELKSVCLKFAAENLSAVIRTDGFDYLKDNCPALQSEILRTVAGCEEECSSGGKSQSVWGQLSDGGDTSGRRVRPR
notes: prey, AD fusion; also called Novel Protein PN29942, Fragment, zinc finger protein
On to B22, for which, in the assay with OsS49462 aa 1-100, the binding result is reported as “binds”.
Take AVREPKRYYDPSPAYPAPYHQQTNRDPYAYGNTTTGGYGYAYG (other, not fully specified, prey, AD fusion) [OsPN22020 aa 128-170]: in the assay with OsCHIB1 aa 10-200, the binding result is listed as “binds”.
